# According to the DeepSol protein solubility set:
# Assay: soluble on expression in E. coli; label from the status in PepcDB or PDB records
row,Sequence,soluble on expression in E. coli
1,MRVVIVGAGLAGLAAAVDLVDAGHRVEIYESRPFVGGKVSSWQDADGNHIEMGLHVFFYNYANLFELMTKVGAIANLLPKEHTHTFINRGGQVGELDFRFPLGAPFNGLKAFFTTRQLSAADKFFNAIALGTSPVVRGLVDYEGAMRQIRALDCMSFAEWFRRHGGSENSLKRLWNPISYALGFIDTEHMSARCMLTIFMMFAAKTTASRLNMLKGSPAEYLLKPLVNYIEARGAKIHLRRRVKEILFRGEDASTWRVEGLVIPRGEALETVTADAYLCACDVPGIQRLIPEAWRSHPTFDNIFKLEAVPVATVQLRFDGWVTELQDPRKQKQVAATGIDNLLYTADADFSCFADLALTSPADYYREGQGSLLQVVLTPGDPFIKASNEEIAQHVLRQVHELFPSSRHLNMTWYSVVKLAQSLYREAPGMDPYRPPQKTPVPNFYLAGSYTQQDYIDSMEGATMSGRQAAQAILAGGHPLEHHHHHH,soluble
2,MTAPPPPLVELPPGSMVERWSITKKLGEGGCGAVYLCTDATGKYALKVEGISEAMQVLKMEVLVLGELTKRGSRHFCKIEDKGRYGSFNYVVMTLVGKSLQDLRKGTAQQCLSLACSLSVGIQSLEALEDLHNIGYLHRDVKPGNYTIGRAELNELRKVYILDFGMARKFTDNNGVIRKPRAAAGFRGTVRYAPIACHKNQELGRKDDVEVWLYMQVELTVGRVPWKEITDMNAVGQAKQAIRNTPEKMFVFPCPANELKEIMKMVDSWDYFADPNYADCYRLMKQTLANCGKPEYPYDWEPGMPLNYMVK,not soluble
3,MSTFRLALIQLQVSSIKSDNLTRACSLVREAAKQGANIVSLPECFNSPYGTTYFPDYAEKIPGESTQKLSEVAKESSIYLIGGSIPEEDAGKLYNTCSVFGPDGSLLVKHRKIHLFDIDVPGKITFQESKTLSPGDSFSTFDTPYCKVGLGICYDMRFAELAQIYAQRGCQLLVYPGAFNLTTGPAHWELLQRARAVDNQVYVATASPARDDKASYVAWGHSTVVDPWGQVLTKAGTEETILYSDIDLKKLAEIRQQIPILKQKRADLYTVESKKP,soluble
4,MSGGEAQGKRKQWQRWLSPRYVWRRLRHNIGPKLVSLGAALVLWSVSTGDQRAQVQQSYDVPITVRDTTGASGSDERRAVSDLNPETVRVTLTGRPERLNELRPSNIEALLDVTGVPEGSFNRPVQIVAPSNTVLSKQVPERVQGFVDSELSRTLTVTLGVASPAENSLPRFEVRPSEVQATAPSRVLNQVTRVVTSPVDLDPGEEREAPLIALDSRGRVVEPVTLHPASVSVQRLDTGTLPVKTLPVVLGAPPASLRVQSQTLQPRTVRVVAAPELLGRLREVSGQVDYRVGSSTLPVTLRLPDGAQALETVSVSLVVERIKAPDPGAGAPTQQKSGASSSSGGNLEHHHHHH,soluble
5,MPQVAKTYESLAREAADNNLDYEEYLLCVLEQEVHQRENNRIQRGIRQAGFPVIKTIESFDFLAIPSLNKPRVLKLMQGEYIRRRENVILIGNSGVGKTHIATALGYEACRQGMKVKFYTAAGLINELLAAQQEYRLNKLEKQWLAPHLVILDELGYVPFSKIGAELLFQFCSSRYERGSLIITTNLEFPRWTEVLGDEQMTAALLDRLTHNAHILNINGESYRFKQALSKQANND,soluble
6,MDTEDTSGYSSLKSSPQSSDENFFKRLQWGKIRLELKTPEFLKESSELEIEKNEKSGIQKCGENEGENEEKCEFRPVVTPNEIDSHKEWYHRLLMLKLEYKRGERGAFPPFPPPPLPSMMIAASNAVSFNAFDEVKRAAQAKTAKSPSTSSLERRAQRFCPADFQPLPPPHIYIEMIRTLAPHQYIDLTYALAGSVLLEMGVKIPDRYPNLPPKIEPYRDIESEEAAHWTEMSSQSSSEGEYSDASESAKLVQTLNRRKNKERRETRKIRIVASMLTSSTFSMKKKRKNEGLDFKHETFPRDYDYKEKTLSTFIPPRIARRPPIPPPQFFFPPSPHFSREPHSLPPMPMMLPIPLPPMSLSSPISPIHFQKNLQSTPERPSRTDSSRVHAKQIKNDIIIVEKVTDV,not soluble
7,MSLMQEETFYSVRMRASMNGSHEDGGKHISGGERLIPFHEMKHTVNALLEKGLSHSRGKPDFMQIQFEEVHESIKTIQPLPVHTNEVSCPEEGQKLARLLLEKEGVSRDVIEKAYEQIPEWSDVRGAVLFDIHTGKRMDQTKEKGVRVSRMDWPDANFEKWALHSHVPAHSRIKEALALASKVSRHPAVVAELCWSDDPDYITGYVAGKKMGYQRITAMKEYGTEEGCRVFFIDGSNDVNTYIHDLEKQPILIEWEEDHDSEGHHHHHH,soluble
